Assay results published in patent US20240316102A1.

Biological target: CD38 on expanded NK cells (g-NK or cNK) (human) (UniProt P28907)
Assay: cell-based or functional assay

Substance: daratumumab (antibody)
- daratumumab-induced fratricide of expanded NK cells (4 h, 1 µg/mL, PI staining, 3-color flow cytometry) (times lower (g-NK versus cNK)): 13
